Reference: patent US20210072252A1

T1: Leu
T1 sequence (peptide): LGMMGSSC

B1: Phosphotyrosine NAAB (designed binder)
chain: MDEFEMIKRNTSEIISELREVLKKDEKSALIGFEPSGKIHLGHYLQKKMIDLQNAGFDIIIPLADLHAYLNQKGELDEIRKIGDYNKKVFEAMLKAKYVYGSEFQLDKYTLNVYRLALKTTLKARRSMELIAREDENPVAEVIYPIMQVNGCHYKGVDVAVGGMEQRKIMLARELLPKKVVCIHPVLTGLDGEGKMSSSGNFIAVDDSPEEIRAFKKAYCPAGVVEGNPEIAKYFLEYPLTIKPEKFGGDLTVNSYEESLFKNKELHPMDLKAVAEELIKILEPIRK
B2: engineered MetRS domain (Met NAAB), GST-MetRS fusion labeled with Cy5 (designed binder, not shown: a dimerising Fc or GST)
chain: AKKILVTCASPYANGSIHLGHMLEHIQADVWVRYQRMRGHEVNFICADDAHGTPIMLKAQQLGITPEQMIGEMSQEHQTDFAGFNISYDNYHSTHSEENRQLSELIYSRLKENGFIKNRTISQLYDPEKGMFLPDRFVKGTCPKCKSPDQYGDNCEVCGATYSPTELIEPKSVVSGATPVMRDSEHFFFDLPSFSEMLQAWTRSGALQEQVANKMQEWFESGLQQWDISRDAPYFGFEIPNAPGKYFYVWLDAPIGLMGSFKNLCDKRGDSVSFDEYWKKDSTAELYHFIGKGIVYFLSLFWPAMLEGSNFRKPSNLFVHGYVTVNGAKMSKSRGTFIKASTWLNHFDADSLRYYYTAKLSSRIDDIDLNLEDFVQRVNADIVNKVVNLASRNAGFINKRFDGVLASELADPQLYKTFTDAAEVIGEAWESREFGKAVREIMALADLANRYVDEQAPWVVAKQEGRDADLQAICSMGINLFRVLMTYLKPVLPKLTERAEAFLNTELTWDGIQQPLLGHKVNPFKALYNRIDMRQVEALVEASK
modifications: Cy5 fluorophore on lysine side chains

Experiments:
[1] = target: peptide with N-terminal phosphotyrosine; experiment: biolayer interferometry (Blitz), peptide-coated sensor, NAAB in 1x PBS, 1:1 fit, kd/ka
[2] = target: T1, Leu; experiment: single-molecule TIRF, Cy5-labelled protein on peptide immobilized on nanogel

Binder	Kd [1] [nM]	Counts [2] [counts]
B1	1070	
B2		49
